Results published in the supplement of paper PMC10065799, “High-throughput profiling of sequence recognition by tyrosine kinases and SH2 domains using bacterial peptide display” (eLife, 2023).

Experiments:
AncSZ = assay: phosphorylation enrichment, bacterial display (enrichment ratio); higher = better substrate or ligand; peptides without Tyr show the background
EPHB1 = EPHB1 (UniProt P54762); assay: as above
EPHB2 = EPHB2 (UniProt P29323); assay: as above
FGFR1 = FGFR1 (UniProt P11362); assay: as above
FGFR3 = FGFR3 (UniProt P22607); assay: as above
Fer (mouse) = assay: as above
Fes = Fes (UniProt P07332); assay: as above
Fyn = Fyn (UniProt P06241); assay: as above
Hck = Hck (UniProt P08631); assay: as above
Jak2 = Jak2 (UniProt O60674); assay: as above
MERTK = MERTK (UniProt Q12866); assay: as above
c-Abl (mouse) = assay: as above
c-Src = assay: as above
Grb2 SH2 = Grb2 SH2 (UniProt P62993); assay: SH2 binding enrichment of the phosphorylated peptide, bacterial display (enrichment ratio); higher = better substrate or ligand; peptides without Tyr show the background
SHP2-C SH2 = assay: as above
c-Src SH2 = assay: as above
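Wherever SH2 binding enrichment of the phosphorylated peptide, bacterial display is given: peptide library displayed on the E. coli surface as eCPX fusions, selected cells deep-sequenced, score is each peptide's frequency after selection divided by its frequency in the input.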
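Wherever phosphorylation enrichment, bacterial display is given: 11-residue human phosphosite peptides and single-mutation variants displayed on the E. coli surface, counted by deep sequencing, each peptide's frequency after selection divided by its frequency in the unselected input library; frequency after pTyr selection over input frequency; kinase dosed for 20-30% of maximal phosphorylation in three min.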

Chain of MERTK (Q12866 whole entry, looked up): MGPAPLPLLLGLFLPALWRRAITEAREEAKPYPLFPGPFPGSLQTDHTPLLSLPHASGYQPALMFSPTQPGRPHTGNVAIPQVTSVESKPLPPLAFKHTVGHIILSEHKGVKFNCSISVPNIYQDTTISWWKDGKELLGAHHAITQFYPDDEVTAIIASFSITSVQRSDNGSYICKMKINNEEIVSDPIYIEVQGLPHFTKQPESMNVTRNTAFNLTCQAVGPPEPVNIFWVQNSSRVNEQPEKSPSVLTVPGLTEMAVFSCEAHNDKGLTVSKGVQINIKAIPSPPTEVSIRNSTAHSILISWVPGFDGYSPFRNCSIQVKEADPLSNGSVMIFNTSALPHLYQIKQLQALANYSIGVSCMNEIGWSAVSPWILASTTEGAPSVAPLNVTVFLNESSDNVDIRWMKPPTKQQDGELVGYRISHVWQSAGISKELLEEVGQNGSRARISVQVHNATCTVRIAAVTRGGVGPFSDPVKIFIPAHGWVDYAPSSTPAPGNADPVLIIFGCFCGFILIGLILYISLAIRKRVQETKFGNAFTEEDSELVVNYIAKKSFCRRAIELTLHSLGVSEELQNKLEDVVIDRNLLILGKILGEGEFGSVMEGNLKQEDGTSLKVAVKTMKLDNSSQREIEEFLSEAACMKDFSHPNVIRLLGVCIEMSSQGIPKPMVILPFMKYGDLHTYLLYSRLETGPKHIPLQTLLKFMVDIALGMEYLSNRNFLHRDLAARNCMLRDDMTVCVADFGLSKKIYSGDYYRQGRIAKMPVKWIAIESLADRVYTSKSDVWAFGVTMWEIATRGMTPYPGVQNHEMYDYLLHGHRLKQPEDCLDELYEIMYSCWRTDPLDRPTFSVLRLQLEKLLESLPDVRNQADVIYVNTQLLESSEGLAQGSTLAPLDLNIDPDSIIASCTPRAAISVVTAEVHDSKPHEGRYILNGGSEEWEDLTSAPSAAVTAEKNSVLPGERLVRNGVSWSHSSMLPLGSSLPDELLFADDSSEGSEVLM
Chain of EPHB2 (P29323 whole entry, looked up): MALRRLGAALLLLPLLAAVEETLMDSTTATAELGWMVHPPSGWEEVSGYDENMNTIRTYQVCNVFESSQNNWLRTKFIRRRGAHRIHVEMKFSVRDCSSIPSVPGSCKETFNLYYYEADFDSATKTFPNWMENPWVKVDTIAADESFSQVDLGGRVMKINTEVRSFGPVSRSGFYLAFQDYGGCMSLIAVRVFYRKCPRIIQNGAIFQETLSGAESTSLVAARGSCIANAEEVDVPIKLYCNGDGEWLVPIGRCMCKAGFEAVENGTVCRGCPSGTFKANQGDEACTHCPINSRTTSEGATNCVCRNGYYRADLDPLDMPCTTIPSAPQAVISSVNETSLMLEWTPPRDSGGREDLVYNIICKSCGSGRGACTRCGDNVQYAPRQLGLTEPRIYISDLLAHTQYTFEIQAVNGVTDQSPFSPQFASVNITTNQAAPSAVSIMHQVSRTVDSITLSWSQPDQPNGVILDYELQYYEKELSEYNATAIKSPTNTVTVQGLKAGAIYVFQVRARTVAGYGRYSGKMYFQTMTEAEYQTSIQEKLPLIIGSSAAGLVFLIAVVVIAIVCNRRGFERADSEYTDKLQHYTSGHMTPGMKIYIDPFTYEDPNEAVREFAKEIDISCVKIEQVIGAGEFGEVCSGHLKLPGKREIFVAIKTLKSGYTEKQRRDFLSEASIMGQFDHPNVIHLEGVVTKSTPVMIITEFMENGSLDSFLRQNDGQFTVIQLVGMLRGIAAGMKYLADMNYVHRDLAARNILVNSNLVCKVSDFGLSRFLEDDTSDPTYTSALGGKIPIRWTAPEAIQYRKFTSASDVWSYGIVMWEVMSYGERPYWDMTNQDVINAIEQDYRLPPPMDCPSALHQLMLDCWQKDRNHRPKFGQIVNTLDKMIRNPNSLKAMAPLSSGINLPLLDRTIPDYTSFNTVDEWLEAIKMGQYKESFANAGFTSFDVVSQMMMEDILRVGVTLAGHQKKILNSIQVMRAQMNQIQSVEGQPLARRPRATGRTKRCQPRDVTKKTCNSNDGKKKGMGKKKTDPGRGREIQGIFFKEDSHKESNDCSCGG
Chain of Grb2 SH2 (P62993 whole entry, looked up): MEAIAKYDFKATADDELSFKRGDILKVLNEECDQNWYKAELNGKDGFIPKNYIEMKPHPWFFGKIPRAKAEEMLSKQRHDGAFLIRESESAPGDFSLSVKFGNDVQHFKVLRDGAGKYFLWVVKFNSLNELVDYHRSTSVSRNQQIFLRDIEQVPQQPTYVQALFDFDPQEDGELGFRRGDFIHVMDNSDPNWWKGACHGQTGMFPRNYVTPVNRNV
Chain of Fes (P07332 whole entry, looked up): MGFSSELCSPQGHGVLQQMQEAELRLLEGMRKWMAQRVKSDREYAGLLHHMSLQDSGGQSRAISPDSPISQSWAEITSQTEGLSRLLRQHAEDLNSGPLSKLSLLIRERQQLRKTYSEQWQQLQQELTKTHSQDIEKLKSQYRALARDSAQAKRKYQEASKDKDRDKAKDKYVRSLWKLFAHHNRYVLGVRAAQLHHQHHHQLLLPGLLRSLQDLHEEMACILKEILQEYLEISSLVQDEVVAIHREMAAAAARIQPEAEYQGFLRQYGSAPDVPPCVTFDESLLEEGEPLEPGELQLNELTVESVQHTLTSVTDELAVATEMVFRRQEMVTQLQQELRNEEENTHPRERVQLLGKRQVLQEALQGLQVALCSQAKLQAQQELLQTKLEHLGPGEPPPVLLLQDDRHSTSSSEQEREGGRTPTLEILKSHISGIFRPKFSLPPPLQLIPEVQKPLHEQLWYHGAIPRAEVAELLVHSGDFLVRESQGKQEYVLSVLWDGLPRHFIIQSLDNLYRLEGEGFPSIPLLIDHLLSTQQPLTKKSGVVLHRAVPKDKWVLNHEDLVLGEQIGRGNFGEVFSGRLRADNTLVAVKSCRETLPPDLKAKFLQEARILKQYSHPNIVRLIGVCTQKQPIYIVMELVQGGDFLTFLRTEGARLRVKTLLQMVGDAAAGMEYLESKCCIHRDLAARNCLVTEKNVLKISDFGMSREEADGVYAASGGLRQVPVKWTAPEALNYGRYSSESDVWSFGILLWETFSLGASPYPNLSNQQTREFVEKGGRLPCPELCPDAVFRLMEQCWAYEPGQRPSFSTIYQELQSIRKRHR
Chain of FGFR3 (P22607 whole entry, looked up): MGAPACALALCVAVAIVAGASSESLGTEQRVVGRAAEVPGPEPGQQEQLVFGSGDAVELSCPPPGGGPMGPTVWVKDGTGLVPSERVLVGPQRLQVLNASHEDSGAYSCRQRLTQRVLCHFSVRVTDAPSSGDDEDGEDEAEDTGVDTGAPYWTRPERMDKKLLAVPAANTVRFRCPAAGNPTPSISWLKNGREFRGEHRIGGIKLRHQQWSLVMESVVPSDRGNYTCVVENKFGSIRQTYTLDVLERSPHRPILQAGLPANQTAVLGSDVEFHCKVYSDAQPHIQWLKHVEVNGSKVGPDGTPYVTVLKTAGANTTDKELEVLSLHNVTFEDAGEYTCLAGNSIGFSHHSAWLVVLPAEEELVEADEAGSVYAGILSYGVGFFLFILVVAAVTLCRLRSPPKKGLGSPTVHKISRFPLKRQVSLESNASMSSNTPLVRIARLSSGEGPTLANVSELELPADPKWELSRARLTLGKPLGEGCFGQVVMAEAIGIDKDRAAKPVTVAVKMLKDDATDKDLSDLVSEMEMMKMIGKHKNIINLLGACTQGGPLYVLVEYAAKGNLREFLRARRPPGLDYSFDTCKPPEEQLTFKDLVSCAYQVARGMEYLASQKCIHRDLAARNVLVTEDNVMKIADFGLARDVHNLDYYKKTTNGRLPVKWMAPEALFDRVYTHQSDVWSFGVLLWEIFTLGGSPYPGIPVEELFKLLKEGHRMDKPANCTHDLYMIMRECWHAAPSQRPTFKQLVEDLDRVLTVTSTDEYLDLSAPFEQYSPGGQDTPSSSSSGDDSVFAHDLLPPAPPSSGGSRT
Chain of Hck (P08631 whole entry, looked up): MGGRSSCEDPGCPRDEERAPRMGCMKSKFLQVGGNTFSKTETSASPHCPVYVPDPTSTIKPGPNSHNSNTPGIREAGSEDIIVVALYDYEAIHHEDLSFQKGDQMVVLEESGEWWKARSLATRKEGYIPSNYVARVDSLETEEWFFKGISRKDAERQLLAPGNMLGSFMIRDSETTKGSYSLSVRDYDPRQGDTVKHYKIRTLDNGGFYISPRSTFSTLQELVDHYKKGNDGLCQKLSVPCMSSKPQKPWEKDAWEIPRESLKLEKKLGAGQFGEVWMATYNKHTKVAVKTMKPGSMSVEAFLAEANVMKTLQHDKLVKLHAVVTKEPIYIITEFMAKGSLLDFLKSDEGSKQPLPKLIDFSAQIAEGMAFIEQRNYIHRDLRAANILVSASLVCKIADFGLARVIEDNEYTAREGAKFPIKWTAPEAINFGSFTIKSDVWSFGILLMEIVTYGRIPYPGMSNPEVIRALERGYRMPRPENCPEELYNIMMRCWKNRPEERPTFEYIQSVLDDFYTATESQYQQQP
Chain of Fyn (P06241 whole entry, looked up): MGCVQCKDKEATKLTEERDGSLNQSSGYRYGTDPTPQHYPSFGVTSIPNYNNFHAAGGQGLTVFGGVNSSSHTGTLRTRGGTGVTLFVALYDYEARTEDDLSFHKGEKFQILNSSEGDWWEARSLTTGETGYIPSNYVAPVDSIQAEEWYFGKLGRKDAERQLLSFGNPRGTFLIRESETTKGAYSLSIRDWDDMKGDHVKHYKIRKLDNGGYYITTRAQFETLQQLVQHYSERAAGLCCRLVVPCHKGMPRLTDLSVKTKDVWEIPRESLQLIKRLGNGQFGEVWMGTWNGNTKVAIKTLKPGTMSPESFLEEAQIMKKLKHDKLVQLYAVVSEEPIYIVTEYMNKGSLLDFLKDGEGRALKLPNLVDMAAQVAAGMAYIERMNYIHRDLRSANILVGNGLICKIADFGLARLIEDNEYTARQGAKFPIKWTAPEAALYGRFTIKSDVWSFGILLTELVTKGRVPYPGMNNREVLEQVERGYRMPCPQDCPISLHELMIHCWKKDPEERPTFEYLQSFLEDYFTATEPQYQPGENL

Sequence | phosphorylation enrichment (AncSZ) | phosphorylation enrichment (EPHB1) | phosphorylation enrichment (EPHB2) | phosphorylation enrichment (FGFR1) | phosphorylation enrichment (FGFR3) | phosphorylation enrichment (Fer (mouse)) | phosphorylation enrichment (Fes) | phosphorylation enrichment (Fyn) | phosphorylation enrichment (Hck) | phosphorylation enrichment (Jak2) | phosphorylation enrichment (MERTK) | phosphorylation enrichment (c-Abl (mouse)) | phosphorylation enrichment (c-Src) | SH2 binding enrichment (Grb2 SH2) | SH2 binding enrichment (SHP2-C SH2) | SH2 binding enrichment (c-Src SH2)
ANFTEYVATSW [CDKL5_Y171_R175S_YF] | 0.983 | 0.841 | 0.988 | 1.03 | 0.983 | 0.505 | 1.03 | 0.555 | 0.511 | 0.974 | 0.512 | 0.892 | 0.578 | 0.757 | 0.809 | 0.545
ANNEFYFQVCA | 1.26 | 0.656 | 0.588 | 0.755 | 0.939 | 0.601 | 1.37 | 0.478 | 0.536 | 1.25 | 0.43 | 0.818 | 0.486 | 0.741 | 0.662 | 0.337
AQADIYKANFQ [IKBKG_Y308_D311N] | 0.586 | 0.361 | 0.408 | 0.389 | 0.573 | 0.461 | 0.81 | 0.536 | 0.659 | 0.829 | 0.461 | 0.761 | 0.799 | 0.873 | 0.729 | 0.504
AQRKLYRNVML [ZNF569_Y33] | 0.566 | 0.412 | 0.287 | 0.4 | 0.372 | 0.373 | 0.583 | 0.41 | 0.481 | 0.629 | 0.47 | 0.482 | 0.535 | 1.26 | 0.82 | 0.728
ARDVIYIIIPA [FRKtide_2014] | 1.31 | 2.48 | 0.986 | 2.92 | 2 | 0.559 | 1.36 | 0.873 | 1.23 | 1.42 | 2.21 | 1.17 | 1.52 | 1.82 | 2.09 | 1.44
ARQEEYSAMRD [KRAS_Y64_G60R] | 0.962 | 0.508 | 0.563 | 0.518 | 0.584 | 0.387 | 0.902 | 0.429 | 0.488 | 0.896 | 0.497 | 0.837 | 0.497 | 0.824 | 0.729 | 0.804
ASLEAYCKHKY [RXRA_Y403] | 0.964 | 0.53 | 0.501 | 0.472 | 0.658 | 0.424 | 1.01 | 0.503 | 0.455 | 0.799 | 0.392 | 0.727 | 0.411 | 0.831 | 0.733 | 0.548
ASMAKYYASEI [ACADSB_Y372] | 0.701 | 0.404 | 0.32 | 0.483 | 0.576 | 0.38 | 0.761 | 0.491 | 0.515 | 0.92 | 0.731 | 0.717 | 0.595 | 0.849 | 0.554 | 0.575
ATGMEYLASQK [FGFR2_Y616_R612T] | 0.736 | 0.479 | 0.495 | 0.464 | 0.833 | 0.426 | 0.794 | 0.559 | 0.474 | 0.68 | 0.423 | 0.58 | 0.44 | 1.01 | 0.571 | 0.465
ATPKGYERDAS [OTC_Y223_P225R] | 0.591 | 0.358 | 0.522 | 0.462 | 0.471 | 0.518 | 0.68 | 0.442 | 0.399 | 0.551 | 0.447 | 0.421 | 0.369 | 0.767 | 0.562 | 0.444
ATQDDYVLEVR [PTPRZ1_Y2179] | 1.45 | 0.632 | 0.62 | 0.552 | 0.701 | 0.497 | 1.23 | 0.626 | 0.56 | 1.08 | 0.492 | 0.766 | 0.601 | 0.856 | 0.719 | 0.505
ATRKAYGQALA [TKT_Y321] | 0.468 | 0.31 | 0.348 | 0.391 | 0.395 | 0.36 | 0.612 | 0.335 | 0.412 | 0.481 | 0.432 | 0.415 | 0.366 | 0.965 | 0.594 | 0.622
AVAFVYYKSIG [ADGRL4_Y301] | 1.18 | 0.615 | 0.585 | 0.451 | 0.641 | 0.53 | 1.29 | 0.458 | 0.463 | 1.2 | 0.401 | 0.67 | 0.489 | 1.02 | 0.758 | 0.76
AVRFIYTIDGS [DCX_Y105_G100A_YF] | 1.32 | 0.574 | 0.552 | 0.453 | 0.697 | 0.529 | 1.28 | 1.56 | 0.67 | 1.27 | 0.424 | 0.706 | 1.55 | 0.928 | 0.988 | 0.723
AVRVFYRKCPR [EPHB2_Y194] | 0.948 | 0.345 | 0.463 | 0.428 | 0.645 | 0.518 | 0.655 | 0.464 | 0.512 | 0.7 | 0.517 | 0.78 | 0.557 | 0.611 | 0.529 | 0.417
AWVARYIFKRL [LPCAT3_Y348] | 1.26 | 0.555 | 0.472 | 0.351 | 0.604 | 0.482 | 1.25 | 0.502 | 0.48 | 1 | 0.424 | 0.748 | 0.346 | 1.05 | 1.1 | 1
